Results: the DeepSol protein solubility set

Experiment: soluble on expression in E. coli; label from the status in PepcDB or PDB records

| Sequence | soluble on expression in E. coli |
| --- | --- |
| MNELTGADFKSATADDNKKLFIETYGCQMNVADSEVIASVMQMAGYSVAETLEEADAVFMNTCSIRDNAEQKILNRLEFFHSMKKKKKHLIVGVLGCMAERVKDDLIEHHHVDLVVGPDAYLTLPELIASVEAGEKAMNVELSTTETYRDVIPSRICGNHISGFVSIMRGCNNFCTYCIVPYTRGRERSRDVESILNEVADLVSKGYKEITLLGQNVNSYRFEKEGGEVVTFPMLLRLVAEAAPGIRVRFTTSHPKDMSDETLEVIAQVPNVCKHIHLPVQSGSSRILKLMNRKYTREWYLDRVAAIKRIVPDCGLTTDIFSGFHSETEEDHRESLSLMEACGYDAAFMFKYSERPGTYASKHLEDNVPEEIKVRRLNEIIALQNRLSAESNNRCIGKTYEVLVEGVSKRSRDQLFGRTEQNRVVVFDRGTHRIGDFVNVRITEASSATLKGEEVFSLEHHHHHH | not soluble |
| FNKDGKFKIVQFTDVHFKYGNPASDVALERIGEVLDAEHPDLVIFTGDVVYSSPADKGMLQVLGQVERRHLPFVVTFGNHDNEQGKTRAELYDLIRGVAGNLLPDRGASPSPDYILTMKSSADASKDAALLYCMDSHSYSSLKDVDGYAWLTFGQVSWYRAQSAAYTARNGGKPYPALAFFHIPLPEYNEAAANENAILRGTRMEKACAPQLNTGMFAAMKEAGDVMGVFVGHDHDNDYAVMWKNILLAYGRFTGGNTEYNHLPNGARVIVLNEGTRTFETWIRQKGGVVDSTSYPSDYVKDDWRKR | not soluble |
| MARLNVKPTRMELSNLKNRLKTATRGHKLLKDKRDELMRRFVDLIRENNELRQTLEKELAANMKEFVLAKASENSLMVEELFAVPVHEVTLWIDIENIMSVNVPKFHVQSNTAREQEQGEFAYSYLSSNSEMDNTIQKTKELLEKLLRLAEVEKTCQLMADDIEKTRRRVNGLEYSIIPQLEETIHYIELKLEEAERASLVRIMKITSLEHHHHHH | not soluble |
| MTDIISQNENKDDFEDGELPEDGEICDDEDESVKAVPSKSSESAPGAHIAPAHPEKTSGRDSRERVRRFEGNSPPRERDPDPFGSHNDAPDGNDYFGGDKDYRSGAAASSEEEPFSDTDYRVNRRRRLSPSHDDGDFDPRSKRPYYGGRGGFRGGFRNGAKPRFQTEHQICKFFREGYCRDGDNCLYSHQAEDSLRRPVLCNFYANSFCKKGLQCLMLHGEFPCKSFHKGQCNHDPCRFSHVPLTDYTRPIIEKILADEEARQAHQAQQAQTYRQNPVANAAAAAAAAQVMPRRRVLLPGGPNMNGSSPPHATPVIHAPIPQASHPSQLPPPAVVVPTIQRNPGPGIPIHQQYPVAPAAGGYFNQGPRPEQVQGLPPPRTIEPPRLSTQTPPIMHQQQPQLMRPMHPVPIQHPHLQQPGLVQPPQIVSQERHTASPQGFNLEAMLNKMANGEKLISSPRNNVVDDSPASPPPSNYSSMFGSSNRVAVIPQTVQVTWGLVRVQRRLPYSNVENPDRIAANDPRRAKAIAKQFDAFSSLLGAGGNAVSDPRLRAQKEKNDRQQNTMPFSSWMPQIS | not soluble |
| MGRRGMWYPLAAMKGVLEALHQGDYDTAIDLLTRKALFGREREAKEAWLLLAEVYALYGEEGLEKAHHALEEAYALGGLEYDPLYRSLLAELLALEGRPEREVLPLFLPSRDPRVRYHQAQALFYLGRLEEALEALEAGLPPHLAWRAEGLKGRILERLGRHGEAALAYERGAELALGLERYWLLLDAAAMWLEAGEGERALLALKEAEAAVGEEDPEDAATRHYLLARAHLLLGNPGLALEEIRKALALEEESGHKAYGTPLVEGQALLQLGRYEEAMASFREALARADAGERPHVLHEMGVAALDHGAYPEAEEHLRALVREEGYPYLAQAYADLAEALYRQGRYQEAEAAAREAVARGAVAAGELVLGHVAYDLLHLEEALEHYRKAAESAEEGSREWVGAQEMVVDTLAQLGYRFPEEMVRRGQAVLPYLHPADEWHAALTAYVERAQALLREGKRLN | soluble |
| MEVTVMPAAAPVQKQQGLNQIVINKVQKMIEGKQQGVMATITRLLEEGKIAQDFIAPIGVNLRNEDRHPVITFQAEEQVQMNMPEGNFNLHGNAISQISEKMGIPAKYLRELSAGDAWQKQLCATILNEHSGWTGRTRVLIRAVGTEIRGVLSDSYRRLNSVDILTAFIREAANNGAVVSDAYMNDTKVWCETILPTPVEIPTRKNGTVIIFAGARFSTSDFGNGSVDMRSFLLNGACLNGMVRESVMRQIHLGGRLPDTLALSQRTYELDTKTTVSAVKDLTKGLYSKNTIMQKAIEIQGASEIDVDFDKELKSLVQRGALLKNEGREVEKLLMNNNPDDGITGGATLWKLAQGITAFAREQEPERSRELHEISGQLMNRVKNN | not soluble |
| MKFTIVIPIFNRVQYIPETLDSVIRQTYTDLEIICVDDCSSDRSPVLLQDYAKTDLRIKVLTHAKNKGLYLARKTGVLNASGDYILFLDCDDVLDLHAVEVIYNALCKNSVEVLEYGYHSIHANENTVPDSAITVDKLFSSLVYDRYPRAGTVWNKAYKTELLKNAFSKMSDFHAVMGEDFYESVIIAYYAKSYSSIDDVLVIYNDESGISNTRKNLASIQKDLDSVVAILNGFRFFFESYASEHKEAVLNIESYYIRYVYYNLILLKTNKTDRKMAVDLLKDYFSAEAAAPYFNKTKPAVTRDAVMYKIRAVIKRYISKKLREMIKKIIRRYDKKPQQK | not soluble |
| MGSDKIHHHHHHMELRPDLLFLDVELPDVLGLNLLSEMRDEVLWDMKVVFYTSYDKYLLQALRESAFDFLLKPFETGDLRVVIERYRKAVASIPATPSSSFSSSVSALMPQQGMFMISTVTGFKLLRLEEIGYFEYLKDKRQWQVVLFNQTRLNLKRNTKAEDIIGYSQAFIQISQSAIVNVNYLAMIDGKCCQLYPPFHDKSDLVISRSFLKGLQDRFFVL | not soluble |
| MGSDKIHHHHHHATSFTDSLDLTQYRNDVKTLASDAFGGRAPLSEGEQLTLDYLEKAFKEMGLKPAFGDSYLQAVPLAKISADQNMQLDIGGLKLANGSEFTARTQRIAEKVSLKNSDVVFVGYGINAPEYGWNDYQGLDVKGKTVIVLVNDPGFATQDPNVFKGNAMTYYGRWTYKYEEAARQGAEAVFIVHETAPAAYGWGVVQNSNTGTKFALVDTNNNQGQVGVMGWVQYEVAQNIFAKAGMNFDNLKQQAAKPNFKALPLKLRATLTLNNTIERAESHNVAALLPGKTRPDEVVMMHAHWDHLGTIIENGKPEILNGAVDNASGVAGVLALARYFKQQAEIAPLERSIIFSAFTAEETGLIGAQHFAQHPSVPTKDIVAFLNIDGMNVGQSVDYILRYGDGVSELEQYLDKAAKAQGRLVKADPRPQNGLMFRSDHFALAQQGVPGLLFMSLGDTDPDYIAHKYHQGADDYDPNWSLAGVSQDLELMAQMLTMLANSRDWPRWIESSDFKAKREQDGRN | not soluble |
| MLSSPLRVAVVCVSNINRSMEAHSILRRKGLSVRSFGTESHVRLPGRRPNHPVVYDFATTYKEMYNDLLRKDRECYTHNGILHILGRNERIKPGPERFQECTEFFDVIFTCEERVYDTVVEDLCSREQQTFQPVHVINMDIKDTLEGAILGAFLICEICQCLQQSDDMEDSLEELLLQMEEKAGKSFLHTVCFYLEHHHHHH | soluble |
| MATDRENLLSDDYEETAAFCGCGYFRSFSFTRWRRGDDESRSRGGWSGCLQEERRGNWGSEKLKGLKEISEKIAGPKWKNFIRSFSSGRKKMRRDVDFTYDLKNYSLNFDDGGDGKDSSPERFVAPVVIKV | not soluble |
| MSNSFGIKVIACDKIFYNGRCTQLVLPLRDGSKAIQAHHENMVFSVEVGEIKITKEDGSTIVGVTGTGFAQMVNNRATVIVDTCEYPEEIDLRRAEEAKERAEEQLRQKQSIAEYHISKASLARAMARLKEGSGKGTPYGY | not soluble |
| MGENITTRGVDLLGLPTGTRLRLGESALVELTGLRNPCSQLDNYQPGLTAAVLGRDEQGNLIRKAGVMAIVLEDGEVRPGDAIDIQLPPLPHRALEKV | not soluble |
| LRTITRDDWETCIDLKVARHQAHFVASNLYSLAQSRFLPGFRAVGIHHGGRMVGFALYGPDADDGHYWLYRLMIDRRYQGKGHGRAALQRIIASVRRTRRRSDRLMVAYAVDNDVARQLYRDAGFVEQGLAPWGETMACLMLPEPSHRSGKVAGAPGGRAAHGVPA | not soluble |
| MSLGVKVDESFCLSDRDHIRKRPNMYVGSVNREAHERFIMGKFRKVEYVEGLVKIINEILDNSIDEAIRTDFKFANRIEVKIDHNLVTISDNGRGIPQDDVRTPEGKIVPKPVAAWTMAKSGSNFDDENRVTMGMNGVGSFLTNCYSSIFIGETSNGKRKVTINCTDGAQNMDYRTSPTKEQGTTVKFTPDFSIFGVDGIDEETKEVIKDRLMALAVAFPSVKFTYNGETLPNKFAMYGAMYGDSTITQTNNKISFILASTEDGFKQKSFVNGLDTKNGGVHVDCMIDGIYAELEPMIKKKHAIEIPKARVKECLTLVVFLHNFNAPAFDSQTKEKLTNTAGEFNNHAGLNYKKIAKQIMDTSEIITPIIESALIRKQAAEAAAITKEGHHHHHH | soluble |
| MLGERIMSKLSKGIKDQASGLRNLSRNKPVKVIAVSAGKGGVGKSNISVNLAIALSQLNYSVMLLDADLGLANVDIMLGLHTKYNLSHVLQGICHLSDIILHGPAGVRVIPAASGTEFMTQLSPAEHAGIIDSFNELTDDLDYMIIDTAAGISETVLSFTRSSQELIVVVCDEPTSLTDAYALIKVMSKRYEWTHFHILANMVRNVKDGRDLFNKLFRVSGQFLDVQLDYLGAIPFDENIHKSVKKQNPILIAYPDSPAAHALRELAESVSNWSFKPSLGGNTSFFLERLVAGQF | not soluble |
| SLSDPIIDMHLHASAADEQGPPPLAMCAPINPMPTWDQRQPWTTGLIAMFKAPKCADPIWSPTTDDEIRDKTLAIMAKRNIIGVVSGPYKRVMAWRALAPDRVLPGLMPTMSDLSKPKVLLDDFGKAKAAGQLAVIGELGFQYEGIAPNDPRLENLWAAAEAADVPVAIHIGPGPPGVAYLPGGGYRARMSSPLLLEDVLVKHPKLRINVMHAGYPMLDDTLALLYAHPQVYVDTGVIVYSQPRPAFYRYLQTLVDAGFGERVMFGSDQMVWPETIERSIAVIDEAPFLSAQQKRDILYNNAARFLRLDEATQAKHRAM | soluble |
| GPGSMSRYSTGIENIPSLFDLASALTGFIADFTQVVFGNTQTSFTAAALEETDRGNYDPVARSWEGTGGLNYRVPLYPIPSERHTRERTRNIKILMDNCRRICVEDELPSTKEELQFWTAYRFMKYQMYLTPTCVIMPPLYVMWRMFHDRIPRPFRGRTIPVTLSLALAEQWADATYPGHQFLSTALRAKTPMGDAARAEWLRLQPIDIPYYIYAAYQFQHFFGNVPKEILFGGDIAGYCS | not soluble |
| MTTSDSRSFMYRLLKFISRQPIQLSRLFARMLAGLVNTLKLTKTSRTIQLNLKITLPYLNDQQRERIIQNAIRNELTSYMEFFSIWGSSNQKNISRIHHVEGADFFHQAIAENKGIVLIVPHFGTWEIMNAWCAQYTDMTILYKPVKDKDADRFVREARSREQAKLVPTDESGVRQIFKALKQGGTTVILPDHTPNVGGEMVDYFGIPLASSNLSAKLIQKTKAKALFLYAIRNENHGFDMFIEPMDPAIYQGTDHDGTLVIHHAIEDLIRKYPDHYHWSYKRFKA | not soluble |
